Results reported in CN116355089A.

How the values were obtained:
人IV型胶原蛋白α3链多肽 (human) = experiment: indirect ELISA, purified antibody on plates coated with 0.5 μg/ml peptide
生物素标记的抗原多肽 = experiment: BLI (Fortebio Octet), biotinylated peptide on SA biosensor, antibody at 1.56-100 nM

B1: 4E5E2-1 (antibody, IgG1, V domains shown)
VH: EVQLQQSGAELVRSGASVKLSCTASGFNIKDSNIHWLIQRPEQDLEWIGWIDPDNGDSEYAPKFQGEATMTADTSSNTAYLQLSSLTSEDTAVYFCNAVNWDYFDYWGQGTTLTVSS
VL: DVVVTQTPLSLPVSLGDQASISCRSSQSLVHNNGNTYLHWYLQRPGQSPKLLIYKVSNRFSGVPDRVSGSGSGTDFTLKISRVEAEDLGVYFCSQSTHIPITFGSGTKLEIK
- EC50 (人IV型胶原蛋白α3链多肽 (human)): 4.64 ng/mL
- Kd (生物素标记的抗原多肽): 0.399 nM
